Measured values: PMC10896730

Biological target: oxidative phosphorylation (OXPHOS) complex III (CIII), all subunits (mouse (endogenous in skeletal muscle)) (UniProt Q9CZ13)
Assay: affinity purification with mass spectrometry; IP of UQCRC2 from mouse hindlimb Skm extracts, LC–MS; stoichiometry from the slopes of protein abundance against effective number of tryptic peptides; approximate

UniProt Q9CZ13, sequence (Q9CZ13 whole entry, looked up, tested part not stated, one chain of several): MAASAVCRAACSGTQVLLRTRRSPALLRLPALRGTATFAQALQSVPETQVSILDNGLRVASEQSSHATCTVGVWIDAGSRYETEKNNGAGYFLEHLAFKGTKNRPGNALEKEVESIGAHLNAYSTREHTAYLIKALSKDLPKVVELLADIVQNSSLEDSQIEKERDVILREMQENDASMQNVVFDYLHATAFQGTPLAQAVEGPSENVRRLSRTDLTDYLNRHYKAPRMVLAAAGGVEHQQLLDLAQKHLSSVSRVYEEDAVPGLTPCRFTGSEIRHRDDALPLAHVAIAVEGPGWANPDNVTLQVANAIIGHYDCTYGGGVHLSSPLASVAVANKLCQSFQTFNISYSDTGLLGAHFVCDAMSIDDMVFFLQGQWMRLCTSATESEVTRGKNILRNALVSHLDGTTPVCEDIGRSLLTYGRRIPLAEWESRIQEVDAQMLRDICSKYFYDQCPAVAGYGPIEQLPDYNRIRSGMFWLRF

B1: electron-transfer flavoprotein dehydrogenase (ETFDH) (natural protein)
chain: SSTSAVPQITTHYTVHPREKDKRWEGVNMERFAEEADVVIVGAGPAGLSAAIRLKQLAAEQGKDIRVCLVEKAAQIGAHTLSGACLDPAAFKELFPDWKEKGAPLNTPVTEDRFAILTEKHRIPVPILPGLPMNNHGNYIVRLGHLVSWMGEQAEALGVEVYPGYAAAEVLYHEDGSVKGIATNDVGIQKDGAPKTTFERGLELHAKVTVFAEGCHGHLAKQLYKKFDLRASCDAQTYGIGLKELWIIDEKKWKPGRVDHTVGWPLDRHTYGGSFLYHLNEGEPLVAVGFVVGLDYQNPYLSPFREFQRWKHHPSIQPTLEGGKRIAYGARALNEGGLQSIPKLTFPGGLLIGCSPGFMNVPKIKGTHTAMKSGSLAAESIFKQLTSENLQSKTTGLHVTEYEDNLKQSWVWKELHAVRNIRPSCHGILGVYGGMIYTGIFYWILRGMEPWTLKHKGSDSDQLKPAKDCTPIEYPKPDGQISFDLLSSVALSGTNHEHDQPAHLTLKDDSIPVNRNLSIYDGPEQRFCPAGVYEFVPLEQGDGFRLQINAQNCVHCKTCDIKDPSQNINWVVPEGGGGPAYNGM
  stoichiometry N (ETF complex per CIII complex): 0.5
